Experimental findings from paper PMC11032457 (Proceedings of the National Academy of Sciences of the …, 2024) are described below.

For orientation: Km means the substrate concentration at which the rate is half of its maximum. What is called kcat is the maximal rate divided by the concentration of active sites. One may read the kcat/Km as the turnover number divided by the Michaelis constant.

The target of data set [1] is T1, TK1094 protein (Thermococcus kodakarensis, UniProt Q5JE21).
T1 sequence (Q5JE21 1-399): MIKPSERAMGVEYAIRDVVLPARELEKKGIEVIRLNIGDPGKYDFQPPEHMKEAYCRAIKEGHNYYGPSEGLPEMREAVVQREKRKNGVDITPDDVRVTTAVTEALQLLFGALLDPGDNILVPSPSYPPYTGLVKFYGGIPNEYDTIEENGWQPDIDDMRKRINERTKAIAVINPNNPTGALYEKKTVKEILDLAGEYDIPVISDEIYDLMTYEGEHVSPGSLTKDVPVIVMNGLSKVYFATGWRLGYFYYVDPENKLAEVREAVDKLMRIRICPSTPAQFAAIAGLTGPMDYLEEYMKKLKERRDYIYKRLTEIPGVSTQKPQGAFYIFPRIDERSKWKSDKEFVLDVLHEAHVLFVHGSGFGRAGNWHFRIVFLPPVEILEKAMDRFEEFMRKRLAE
The data set can be described thus: glycine formation, HPLC. The class given is biochemical. The conditions noted are these: amino donor; 10 mM glyoxylate; 20 μM PLP; 50 mM HEPES pH 7.5; 80 °C.

Data set [2] addresses T2, TK0186 protein (Thermococcus kodakarensis, UniProt Q5JFM8).
T2 sequence (Q5JFM8 1-417): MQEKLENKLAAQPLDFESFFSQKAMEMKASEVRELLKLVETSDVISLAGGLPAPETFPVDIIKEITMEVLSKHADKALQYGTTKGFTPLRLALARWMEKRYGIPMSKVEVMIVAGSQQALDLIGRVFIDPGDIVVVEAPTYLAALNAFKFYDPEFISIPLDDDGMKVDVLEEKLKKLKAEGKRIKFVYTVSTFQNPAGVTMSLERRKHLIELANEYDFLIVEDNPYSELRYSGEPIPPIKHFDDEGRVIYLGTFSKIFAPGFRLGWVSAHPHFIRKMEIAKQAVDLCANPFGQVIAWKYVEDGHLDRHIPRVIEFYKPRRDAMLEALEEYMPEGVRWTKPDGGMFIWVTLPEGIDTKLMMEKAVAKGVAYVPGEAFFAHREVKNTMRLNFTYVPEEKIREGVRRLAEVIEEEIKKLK
Nature of the data set: glycine formation, HPLC. The class given is biochemical. To be noted: amino donor; 10 mM glyoxylate; 20 μM PLP; 50 mM HEPES pH 7.5; 80 °C.

Substrate in data set [3]: O=C(CO)[C@H](O)[C@H](O)COP(=O)(O)O
The data set can be described thus: purified protein. To be noted: 80 °C, 50 mM MES-NaOH pH 6.5, 10 mM MgCl2.

Substrate in data set [4]: O=C(O)COP(=O)(O)O
The data set can be described thus: purified protein. The conditions noted are these: 80 °C.

Substrate in data set [5]: O=C(COP(=O)(O)O)[C@H](O)[C@H](O)COP(=O)(O)O
The data set can be described thus: purified protein. The conditions noted are these: 80 °C, 50 mM MES-NaOH pH 6.5, 10 mM MgCl2.

Substrate in data set [6]: O=C[C@H](O)[C@H](O)COP(=O)(O)O
The data set can be described thus: purified protein. To be noted: 80 °C, 50 mM MES-NaOH pH 6.5, 10 mM MgCl2.

Substrate in data set [7]: O=C(O)C(=O)CO
The data set can be described thus: purified protein. To be noted: reduction, 0.3 mM NADH, 85 °C, 50 mM Tris pH 7.5.

Substrate in data set [8]: C[C@@H](O)C(=O)O
Nature of the data set: purified protein. The conditions noted are these: oxidation, 10 mM NAD+, 80 °C, 50 mM Tris pH 7.5.

Substrate in data set [9]: O=C(O)CO
Nature of the data set: purified protein. To be noted: oxidation, 10 mM NAD+, 80 °C, 50 mM Tris pH 7.5.

Substrate in data set [10]: O=CC(=O)O
Nature of the data set: purified protein. To be noted: reduction, 0.3 mM NADH, 85 °C, 50 mM Tris pH 7.5.

Substrate in data set [11]: CCCC(=O)C(=O)O
The data set can be described thus: purified protein. The conditions noted are these: reduction, 0.3 mM NADH, 85 °C, 50 mM Tris pH 7.5.

Substrate in data set [12]: CC(C)C(=O)C(=O)O
The data set can be described thus: purified protein. The conditions noted are these: reduction, 0.3 mM NADH, 85 °C, 50 mM Tris pH 7.5.

Substrate in data set [13]: CC(=O)C(=O)O
Nature of the data set: purified protein. To be noted: reduction, 0.3 mM NADH, 85 °C, 50 mM Tris pH 7.5.

Substrate in data set [14]: CC[C@H](C)C(=O)C(=O)O
Nature of the data set: purified protein. The conditions noted are these: reduction, 0.3 mM NADH, 85 °C, 50 mM Tris pH 7.5.

The mark [15] stands for this setting: 50 mM MES-NaOH pH 6.5, 10 mM MgCl2.
The mark [16] stands for this setting: 50 mM MES-NaOH pH 7.0, 10 mM MgCl2.

On to `C[C@H](N)C(=O)O` [L-alanine], for which the “glycine formation, HPLC” value in data set [1] is “In the case of the TK1094 protein, activity was observed with L-alanine and L-glutamate”; in [2], “the most preferred amino donor was L-alanine (Fig. 3E)”.

B1: TK2301 protein (Thermococcus kodakarensis KOD1) (protein)
chain: MTIKAISVDIDGTITYPDRRLHEKALEAIRLAESLGVPVMLVTGNTVQFGEAAAILIGTSGPVVGEDGGALSIKEGKLRKRVYLTNMDEEWILWGELKKRYPEALLSFSMPERKAGLVVLRTVPVKAVRELIKELGLNLIAVDSGFAIHIKKPWINKGTGIEKACEYLGISPKEVAHIGDGENDLDAFGVVGYRVAVAQAPESLKEKADYVTTKPYGEGGAEAIEHILRKFGYLPEEKT
For the molecule B1, the Michaelis-Menten constant (Km) in data set [3] amounted to 0.979 ± 0.157 mM; in [4] (setting [15]) it was 1.22 ± 0.09 mM; in data set [5], 0.238 ± 0.044 mM; in [6], 1.25 ± 0.28 mM. For the same molecule, the catalytic constant (kcat) in data set [3] worked out at 16.3 ± 0.5 s⁻¹; in data set [4] (setting [15]), 21.2 ± 0.4 s⁻¹; in data set [5], 30.1 ± 1.3 s⁻¹; in [6], 17.1 ± 1 s⁻¹. Besides, the kcat/Km in data set [3] was determined as 16600 M⁻¹ s⁻¹; in [4] (setting [15]), 17400 M⁻¹ s⁻¹; in [5], 126000 M⁻¹ s⁻¹; in data set [6], 13700 M⁻¹ s⁻¹.

B2: TK1734 protein (2-PG phosphatase) (Thermococcus kodakarensis KOD1) (protein)
chain: MTRKIGIIFDMDGVIYRGSEPINGAKEVIEFLKERKIPFLFLTNNSTRDPAMYREKLLSMGIDVPEDVIVTSGLATRLYMEKHFEPGEVFVIGGKGLLREMERLGWGVVSLEDARKGAWKRIKHVVVGLDPELTYEKLKYGTLAIRNGASFIGTNPDTTYPAEEGLYPGAGAIIAALRASTDREPVIIGKPNEPAYEVVKDKLGDVEELWMVGDRLDTDIAFAKRFGMKAIMVLTGVSTLKDVAESGIKPNLVLPDVGELKRYLEAAL
Turning to B2, in data set [4] (setting [16]), the Km was found to be 1.75 ± 0.22 mM, the kcat amounted to 65.6 ± 2.5 s⁻¹ and the catalytic efficiency (kcat/Km) turned out to be 37500 M⁻¹ s⁻¹.

B3: TK0683 protein (GLDH) (Thermococcus kodakarensis KOD1) (protein)
chain: MRPKVFITRAIPENGIEMLKEHFEVEVWPEEREIPREVLLKKVRDVDALVTMLSERIDSEVFDAAPRLRIVANYAVGYDNIDVEEATRRGIYVTNTPDVLTDATADFAWTLLLATARRLIEADHFTRSGEWKRRGIAWHPRWFLGYDVYGKTIGIVGFGRIGQAVARRARGFGMRILYYSRSRKPEAEKELGAEFRSLEDLLRESDFVVLAVPLTKETQYMINEERLRLMKKTAILVNIARGKVVDTKALMKALKEGWIAGAGLDVYEEEPYYNEELFSLKNVVLAPHIGSATYGAREGMAELVARNLIAFKNGEVPPTLVNKEVVKVRKPGF
B3: the Km in data set [7] was 0.31 ± 0.07 mM; in data set [8], 0.44 ± 0.06 mM; in data set [9] it was 0.44 ± 0.06 mM; in [10], 1.49 ± 0.80 mM. Besides, the kcat turned out to be 3130 ± 462 s⁻¹ in data set [7], 0.105 ± 0.003 s⁻¹ in data set [8], 0.213 ± 0.005 s⁻¹ in [9] and 2030 ± 92 s⁻¹ in data set [10]. Moreover, the specificity constant (kcat/Km) in data set [7] worked out at 1e+07 M⁻¹ s⁻¹; in [8], 240 M⁻¹ s⁻¹; in data set [9], 490 M⁻¹ s⁻¹; in data set [10] it was 1.36e+06 M⁻¹ s⁻¹.

B4: TK0551 protein (GLDH candidate) (Thermococcus kodakarensis KOD1) (protein)
chain: MRPRVLVTFKMKSKPVEELKKYADVDFLLYPSVEELAEKIKDYDGLIVSPLNRVPREVIERAERLKVISCHSAGYDHVDVEAATKKGIYVTKVSGVLSEAVAEFAVGLTIALLRKFVYTDKLIRRGEWDSHAKIWSTFKDIETVYGKKVGILGMGAIGKAIARRMKAMGTEILYWSRSRKEDIEAEVGAKYLPLDEVLRESDIVILALPATPETYHIINEERIKLLEGKYLVNIGRGTLVDEKAVVKAIEEGRLKGYATDVFEKEPVTEHPLFKYEWETVLTPHHAGLSKEAMEDMGFQAVMNLLAVLRGEIPKDLVNREVVKVRPPEEVKML
Consider B4, for which the Km was 3.73 ± 0.25 mM in data set [7]; 1.44 ± 0.09 mM in [11]; 9.90 ± 1.15 mM in data set [8]; 24.1 ± 1.26 mM in data set [9]; 1.90 ± 0.44 mM in data set [12]; 6.89 ± 0.81 mM in data set [13]. The figures for the Km in data set [10] and in [14] were 2.87 ± 0.39 mM and 1.93 ± 0.25 mM, respectively. Further, the turnover number (kcat) in [7] stood at 104 ± 3 s⁻¹; in data set [11] it was 14 ± 0.3 s⁻¹; in [8] it was 0.324 ± 0.013 s⁻¹; in data set [9] it was 0.376 ± 0.009 s⁻¹; in data set [12], 15.9 ± 2.2 s⁻¹; in data set [13], 12.4 ± 0.6 s⁻¹. In addition, the turnover number (kcat) in data set [10] came to 186 ± 2 s⁻¹; in [14] it was 18.3 ± 2.2 s⁻¹. For the same molecule, the kcat/Km stood at 27900 M⁻¹ s⁻¹ in data set [7]; 9720 M⁻¹ s⁻¹ in data set [11]; 32.7 M⁻¹ s⁻¹ in [8]; 15.6 M⁻¹ s⁻¹ in [9]; 8370 M⁻¹ s⁻¹ in data set [12]; 1780 M⁻¹ s⁻¹ in data set [13]. In addition, the results for the kcat/Km in data set [10] and in [14] were 64800 M⁻¹ s⁻¹ and 9480 M⁻¹ s⁻¹, respectively.
